Data on 13 substances can be found in patent publication US20100015644A1.

Test [1] has as its target FcγRIIIaECD176VHis batch 646-005-EP (CHO-K1SV derived) (human) (UniProt P08637). The experiment in a line: ELISA; FcγRIIIa176V directly coated or captured by anti-polyhistidine mAb. On the technique in general: In an ELISA, binding on a coated surface is turned into a signal by an enzyme label.
The target in test [2] is CD4 on CD4+ T cells (human) (UniProt P01730). Put plainly: cell-based or functional assay.
Test [3] deals with FcγRIIIaECD176VHis (HEK-293F, prepared as in Example 4) (human) (UniProt P08637). The experiment in a line: AlphaScreen bridging assay: His-tagged FcγRIIIa176V on Ni-acceptor beads and sCD4-biotine on SA-donor beads; signal needs binding to both. On the technique in general: Bead proximity is the source of the signal in Alpha formats.
Test [4] has as its target Fc receptor on NK cells (effector cells of the ADCC assay) (human) (UniProt P08637). Put plainly: cell-based or functional assay.
For test [5], the target named is FcγRIIIaECD176VHis (HEK-293F, prepared as in Example 4) (human) (UniProt P08637). The experiment in a line: ELISA, plate-bound FcγRIIIa176V; relative potency from EC50.
Test [6] concerns the target sCD4 (UniProt P01730). Put plainly: ELISA, plate-bound sCD4 2.0 µg/ml; relative potency from EC50.

FcγRIIIaECD176VHis (HEK-293F, prepared as in Example 4) (human), sequence (P08637 other isoform, or with tags, fused parts or gaps limits assumed): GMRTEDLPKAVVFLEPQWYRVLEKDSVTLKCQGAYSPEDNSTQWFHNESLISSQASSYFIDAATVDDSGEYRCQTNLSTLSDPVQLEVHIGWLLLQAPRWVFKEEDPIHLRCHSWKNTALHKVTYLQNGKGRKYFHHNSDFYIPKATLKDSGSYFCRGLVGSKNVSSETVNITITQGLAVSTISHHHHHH
Fc receptor on NK cells (effector cells of the ADCC assay) (human), sequence (P08637 17-254): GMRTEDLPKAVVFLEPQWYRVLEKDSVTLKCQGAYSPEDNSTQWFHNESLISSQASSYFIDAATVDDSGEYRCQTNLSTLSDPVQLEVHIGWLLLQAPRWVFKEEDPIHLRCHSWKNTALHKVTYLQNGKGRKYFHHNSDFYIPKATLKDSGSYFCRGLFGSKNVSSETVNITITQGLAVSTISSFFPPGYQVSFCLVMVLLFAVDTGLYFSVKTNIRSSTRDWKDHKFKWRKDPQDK
FcγRIIIaECD176VHis batch 646-005-EP (CHO-K1SV derived) (human), sequence (P08637 other isoform, or with tags, fused parts or gaps limits assumed): as the sequence (P08637 other isoform, or with tags, fused parts or gaps limits assumed) above

Regarding HuMax-EGFr (antibody), the EC50 ratio of the two HuMax-EGFr batches in test [1] was found to be 2.

“zanolimumab (batch not stated) (antibody)” gave a reduction of the level of CD4 expression after 18-24 h (flow cytometry with non-competing anti-CD4) in test [2] of 50 to 80%.

Take zanolimumab batch BN078 (antibody): in test [3], the binding capacity (% of the reference batch) (% of reference batch MRS-CD4-001) is 89.

In test [3], zanolimumab batch BO118 (antibody) showed a binding capacity (% of the reference batch) (% of reference batch MRS-CD4-001) of 88.

Turning to zanolimumab batch GMP#3 (antibody), in test [4], the Relative potency (ADCC), Exp 1 (relative to MRS-CD4-001) is 0.98; the Relative potency (ADCC), Exp 2 (relative to MRS-CD4-001) turned out to be 1.3; the Relative potency (ADCC), Exp (third) (relative to MRS-CD4-001) came out at 1.45; the Relative potency (ADCC), mean (relative to MRS-CD4-001) was 1.24. In test [4], this substance returned a Relative potency (ADCC), relative to batch GMP#3 (relative to GMP#3) of 1. In addition, in test [5], the relative potency (FcγRIIIa176V binding), Exp 1 (relative to MRS-CD4-001) turned out to be 1.12; the relative potency (FcγRIIIa176V binding), Exp 2 (relative to MRS-CD4-001) stood at 1.12; the relative potency (FcγRIIIa176V binding), mean (relative to MRS-CD4-001) amounted to 1.12; the relative potency (FcγRIIIa176V binding), related to parent batch GMP#3 (relative to GMP#3) was found to be 1. Further, in test [6], the relative potency (sCD4 binding), Exp 1 (relative to MRS-CD4-001) stood at 0.91; the relative potency (sCD4 binding), Exp 2 (relative to MRS-CD4-001) was 0.92; the relative potency (sCD4 binding), mean (relative to MRS-CD4-001) was found to be 0.92.

For zanolimumab batch MEV005 (antibody), the binding capacity (% of the reference batch) (% of reference batch MRS-CD4-001) in test [3] is 84.

In the case of “zanolimumab batch MOCK-GMP#3-CD4 (sham-de-glycosylated) (antibody)”, in test [4], the Relative potency (ADCC), Exp 1 (relative to MRS-CD4-001) was determined as 1.38; the Relative potency (ADCC), Exp 2 (relative to MRS-CD4-001) stood at 1.55; the Relative potency (ADCC), Exp (third) (relative to MRS-CD4-001) came to 1.42; the Relative potency (ADCC), mean (relative to MRS-CD4-001) worked out at 1.45. In test [4], this substance gave a Relative potency (ADCC), relative to batch GMP#3 (relative to GMP#3) of 1.17. Further, in test [5], the relative potency (FcγRIIIa176V binding), Exp 1 (relative to MRS-CD4-001) worked out at 1.23; the relative potency (FcγRIIIa176V binding), Exp 2 (relative to MRS-CD4-001) is 1.23; the relative potency (FcγRIIIa176V binding), mean (relative to MRS-CD4-001) stood at 1.23; the relative potency (FcγRIIIa176V binding), related to parent batch GMP#3 (relative to GMP#3) was 1.09. Moreover, in test [6], the relative potency (sCD4 binding), Exp 1 (relative to MRS-CD4-001) turned out to be 0.98; the relative potency (sCD4 binding), Exp 2 (relative to MRS-CD4-001) was 0.85; the relative potency (sCD4 binding), mean (relative to MRS-CD4-001) was 0.92.

“zanolimumab batch MOCK-MRS-CD4 (sham-deglycosylated) (antibody)” returned a binding capacity (% of the reference batch) (% of reference batch MRS-CD4-001) in test [3] of 81.

In test [4], “zanolimumab batch MRS-CD4-001 (antibody)” yielded a Relative potency (ADCC), Exp 1 (relative to MRS-CD4-001) of 1; a Relative potency (ADCC), Exp 2 (relative to MRS-CD4-001) of 1; a Relative potency (ADCC), Exp (third) (relative to MRS-CD4-001) of 1; a Relative potency (ADCC), mean (relative to MRS-CD4-001) of 1. In test [5], this substance gave a relative potency (FcγRIIIa176V binding), Exp 1 (relative to MRS-CD4-001) of 1; a relative potency (FcγRIIIa176V binding), Exp 2 (relative to MRS-CD4-001) of 1; a relative potency (FcγRIIIa176V binding), mean (relative to MRS-CD4-001) of 1. Also, in test [6], the relative potency (sCD4 binding), Exp 1 (relative to MRS-CD4-001) came to 1; the relative potency (sCD4 binding), Exp 2 (relative to MRS-CD4-001) is 1; the relative potency (sCD4 binding), mean (relative to MRS-CD4-001) was determined as 1.

In test [6], “zanolimumab batch UNG-GMP#3-CD4 (de-glycosylated) (antibody)” registered a relative potency (sCD4 binding), Exp 1 (relative to MRS-CD4-001) of 0.96; a relative potency (sCD4 binding), Exp 2 (relative to MRS-CD4-001) of 1.01; a relative potency (sCD4 binding), mean (relative to MRS-CD4-001) of 0.99.

Regarding “zanolimumab mixed batch M50-GMP#3-CD4 (antibody)”, in test [4], the Relative potency (ADCC), Exp 1 (relative to MRS-CD4-001) stood at 0.14; the Relative potency (ADCC), Exp 2 (relative to MRS-CD4-001) was 0.64; the Relative potency (ADCC), Exp (third) (relative to MRS-CD4-001) stood at 0.39; the Relative potency (ADCC), mean (relative to MRS-CD4-001) came out at 0.39. In test [4], this substance returned a Relative potency (ADCC), relative to batch GMP#3 (relative to GMP#3) of 0.31. Besides, in test [5], the relative potency (FcγRIIIa176V binding), Exp 1 (relative to MRS-CD4-001) was 0.5; the relative potency (FcγRIIIa176V binding), Exp 2 (relative to MRS-CD4-001) stood at 0.6; the relative potency (FcγRIIIa176V binding), mean (relative to MRS-CD4-001) stood at 0.55; the relative potency (FcγRIIIa176V binding), related to parent batch GMP#3 (relative to GMP#3) stood at 0.49. Besides, in test [6], the relative potency (sCD4 binding), Exp 1 (relative to MRS-CD4-001) is 1.03; the relative potency (sCD4 binding), Exp 2 (relative to MRS-CD4-001) came to 0.9; the relative potency (sCD4 binding), mean (relative to MRS-CD4-001) amounted to 0.97.

On to “zanolimumab mixed batch M50-MRS-CD4 (antibody)”, for which the binding capacity (% of the reference batch) (% of reference batch MRS-CD4-001) in test [3] was found to be 53.

In test [5], “zanolimumab mixed batch M90-MRS-CD4 (antibody)” registered a relative potency (relative to MRS-CD4-001) of 0.7. The same substance returned a binding capacity (% of the reference batch) (% of reference batch MRS-CD4-001) in test [3] of 75.
